Results as given in publication PMC3474183.

Target: lymphocyte-derived soluble LIGHT (TNFSF 14) (human (endogenous in PBMC))
Assay: SEC

stoichiometry N: 3
Substance: lymphocyte-derived soluble LIGHT (TNFSF 14) (ligand)
